According to patent publication US20090311265A1 (CRUCELL HOLLAND B V, published 2009):
Changes are numbered by the printed parent chain.

B1: CR6296 (antibody, V domains shown)
VH: EVQLVETGAEVKKPGASVKVSCKASGYTFTSYYMHWVRQAPGQGLEWMGWINPNSGGTNYAQKFQGRVTMTRDTSISTAYMELSRLRSDDTAVYYCAREGKWGPQAAFDIWGQGTMVTVSS
VL: EIVMTQSPGTLSLSPGERATLSCRASQSVSSSYLAWYQQKPGQAPRLLIYDASSRATDIPDRFSGSGSGTDFTLTISRLEPEDFAVYYCQQYGSSLWTFGQGTKVEIKR
B2: CR6307 (antibody, V domains shown)
VH: QVQLVQSGGGLVKPGGSLRLSCAASGFTFSSYSMNWVRQAPGKGLEWVSSISSSSSYIYYVDSVKGRFTISRDNAKNSLYLQMNSLRAEDTAVYYCARGGGSYGAYEGFDYWGQGTLVTVSS
VL: EIVLTQSPGTLSLSPGERATLSCRASQRVSSYLAWYQQKPGQAPRLLIYGASTRAAGIPDRFSGSGSGTDFTLTISRLEPEDSAVYYCQQYGRTPLTFGGGTKVEIKR
B3: CR6272 (antibody, V domains shown)
VH: QMQLVQSGAEVKKPGSSVKVSCKASGGTFSSYAITWVRQAPGQGLEWMGGIIGMFGSTNYAQNFQGRVTITADESTSTAYMELSSLRSEDTAVYYCARSTGYYPAYLHHWGQGTLVTVSS
VL: QSALTQPRSVSGSPGQSVTISCTGTSSDVGGYNYVSWYQQHPGKAPKLMIYDVSKRPSGVPDRFSGSKSGNTASLTISGLQAEDEADYYCSSYTSSSTHVFGTGTKVTVLG
B4: CR6323 (antibody, V domains shown)
VH: B3 VH with Q1E, M2V, Q6E, A33G, T35S, G50D, V68L, T100S, H108P
VL: not shown
B5: CR6343 (antibody, V domains shown)
VH: QVQLVQSGAEVKKPGSSVKVSCKASGVTFSYYAMSWVRQAPGQGLEWMGGISPMFGTTTYAQKFQGRVTITADDSTSTAYMEVRSLRSEDTAVYYCARSSNYYDSVYDYWGQGTLVTVSS
VL: QSVVTQPPSESVAPGQTARITCGGHNIGSNSVHWYQQKPGQAPVLVVYDNSDRPSGIPERFSGSNSGNTATLTISRVEAGDEADYYCQVWGSSSDHYVFGTGTKVTVLG
B6: CR6301 (antibody, V domains shown)
VH: EVQLVESGGGLVQPGGSLRLSCAASGFTFSIYAMSWVRQAPGKGLEWVSAISSSGDSTYYADSVKGRFTISRDNARNTLYLQMNSLRAEDTAVYYCARAYGYTFDPWGQGTLVTVSS
VL: not shown
B7: CR6339 (antibody, V domains shown)
VH: EVQLVESGAEVKKPGSSVKVSCKASGGIFNSYAISWVRQAPGQGLEWMGGIIAIFHTPKYAQKFQGRVTITADESTNTAYMELRSLKSEDTALYYCARGSTYDFSSGLDYWGQGTLVTVSS
VL: QAGLTQPPSVSVAPGQTARITCGGNNIGSKSVHWYQQKPGQAPVLVVYDDSDRPSGIPERFSGSNSGNTATLTISRVEAGDEADYYCQVWDSSSDHVVFGGGTKLTVLG

Tests used:
[1] = target: T1, soluble recombinant HA (sHA) of H5N1TV (influenza A virus A/Vietnam/1194/2004 …, UniProt Q6J8F6 17-528); assay: immunoblot (data not shown)
[2] = target: full-length HA from isolate A/Vietnam/1194/2004 (H5N1TV) on PER.C6 cells (influenza A virus A/Vietnam/1194/2004 …, UniProt Q80A26 6-554); assay: flow cytometry, transfected PER.C6 cells
[3] = target: recombinant HA, subtype H3 (A/Wyoming/3/2003(H3N2)) (influenza A virus A/Wyoming/3/2003 …); assay: ELISA, coated HA, IgG 5 µg/ml
[4] = target: T2, recombinant HA, subtype H5 (A/Vietnam/1203/2004 (H5N1)) (influenza A virus A/Vietnam/1203/2004 …, UniProt Q80A26 6-554); assay: ELISA, coated HA, IgG 5 µg/ml
[5] = target: T1, soluble recombinant HA (sHA) of H5N1TV; assay: immunoblot, reducing SDS-PAGE
[6] = target: recombinant HA, subtype H1 (A/New Caledonia/20/99 (H1N1)) (influenza A virus A/New Caledonia/20/99 …, UniProt Q289M7 18-565); assay: ELISA, coated HA, IgG 5 µg/ml
[7] = target: T2, recombinant HA, subtype H5 …; assay: competition ELISA on coated HA, IgG 10 µg/ml, competitor: phage antibodies

Row | Binder | binding result [1] | flow cytometry signal at 0.1 µg/ml [2] | flow cytometry signal at 1 µg/ml [2] | flow cytometry signal at 10 µg/ml [2] | OD 492 nm [3] | OD 492 nm [4] | binding result [5] | OD 492 nm [6] | residual binding of phage antibody in the presence of the IgG [7]
1 | B1 | binds |  |  |  |  |  |  |  | 
2 | B2 |  | 82.4 | 267 | 485 | 0.11 OD 492 nm | 0.99 OD 492 nm | binds |  | 
3 | B3 |  |  |  |  | 0.07 OD 492 nm | 0.58 OD 492 nm |  | 0.81 OD 492 nm | > 25%
4 | B4 |  | 33.4 | 117 | 445 | 0.07 OD 492 nm | 1.89 OD 492 nm | binds | 2.32 OD 492 nm | 
5 | B5 |  |  |  |  | 0.07 OD 492 nm | 0.76 OD 492 nm |  | 1.28 OD 492 nm | > 25%
6 | B6 | binds |  |  |  |  |  |  |  | 
7 | B7 |  |  |  |  | 0.07 OD 492 nm | 0.81 OD 492 nm |  |  | > 25%
